# Laboratory results as given in patent US12427210B2, “Compounds comprising a fibroblast activation protein ligand and use thereof” (priority 2019, dated 2025).
# Columns and labels:
# [1] = target: T1, DPP3 (Homo sapiens (Human)) (UniProt Q9NY33)
# T1 sequence: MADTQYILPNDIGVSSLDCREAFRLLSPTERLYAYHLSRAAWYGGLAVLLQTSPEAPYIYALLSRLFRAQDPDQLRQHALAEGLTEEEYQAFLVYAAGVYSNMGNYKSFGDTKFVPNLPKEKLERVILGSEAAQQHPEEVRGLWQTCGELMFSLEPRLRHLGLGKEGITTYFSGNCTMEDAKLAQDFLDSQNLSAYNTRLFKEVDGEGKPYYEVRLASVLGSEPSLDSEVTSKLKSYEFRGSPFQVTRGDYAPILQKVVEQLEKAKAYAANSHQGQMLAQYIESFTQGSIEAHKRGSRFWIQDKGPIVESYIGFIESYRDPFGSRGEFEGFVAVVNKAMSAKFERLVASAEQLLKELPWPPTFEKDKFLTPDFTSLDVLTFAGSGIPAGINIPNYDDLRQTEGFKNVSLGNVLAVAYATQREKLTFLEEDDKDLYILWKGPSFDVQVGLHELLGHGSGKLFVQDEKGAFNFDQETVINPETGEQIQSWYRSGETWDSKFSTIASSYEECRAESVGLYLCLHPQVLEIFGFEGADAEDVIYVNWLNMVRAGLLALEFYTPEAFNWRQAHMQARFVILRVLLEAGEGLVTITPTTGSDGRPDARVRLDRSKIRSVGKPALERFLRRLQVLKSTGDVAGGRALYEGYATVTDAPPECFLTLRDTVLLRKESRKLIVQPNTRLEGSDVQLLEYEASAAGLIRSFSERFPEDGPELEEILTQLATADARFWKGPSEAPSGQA
# [2] = target: Recombinant human FAP (R&D systems, #3715-SE) (human)
# Sequence of Recombinant human FAP (R&D systems, #3715-SE) (human) (chain, as listed by the source limits assumed): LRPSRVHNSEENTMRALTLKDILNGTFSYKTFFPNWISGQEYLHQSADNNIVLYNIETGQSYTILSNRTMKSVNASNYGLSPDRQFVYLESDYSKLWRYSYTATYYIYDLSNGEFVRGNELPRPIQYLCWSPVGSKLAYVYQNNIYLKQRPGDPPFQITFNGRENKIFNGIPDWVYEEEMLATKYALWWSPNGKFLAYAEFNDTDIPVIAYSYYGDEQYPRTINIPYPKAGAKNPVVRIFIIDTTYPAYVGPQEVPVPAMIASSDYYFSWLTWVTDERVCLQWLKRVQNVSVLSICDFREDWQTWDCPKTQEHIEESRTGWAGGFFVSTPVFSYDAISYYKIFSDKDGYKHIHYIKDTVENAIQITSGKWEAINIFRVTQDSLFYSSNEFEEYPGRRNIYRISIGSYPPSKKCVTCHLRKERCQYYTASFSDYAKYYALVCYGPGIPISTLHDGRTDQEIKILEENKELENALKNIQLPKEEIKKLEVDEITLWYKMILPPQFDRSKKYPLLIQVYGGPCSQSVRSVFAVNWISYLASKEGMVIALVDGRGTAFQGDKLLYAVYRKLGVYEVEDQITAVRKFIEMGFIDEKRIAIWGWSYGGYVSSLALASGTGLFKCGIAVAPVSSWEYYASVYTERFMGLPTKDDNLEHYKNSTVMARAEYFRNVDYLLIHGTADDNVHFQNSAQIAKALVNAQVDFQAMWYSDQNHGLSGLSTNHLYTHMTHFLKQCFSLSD
Substance,Percentage inhibition (%) (% inhibition at 10 µM) [1],pIC50 Category (Activity) [2]
Hex-[Cys(tMeBn(DOTA-AET))-Pro-Pro-Thr-Gln-Phe-Cys]-OH (3BP-3554) (peptide),-1,
Hex-[Cys(tMeBn(DOTA-PP))-Pro-Pro-Thr-Gln-Phe-Cys]-Asp-NH2 (3BP-3407) (peptide),,> 8 pIC50
